Laboratory results published in the supplement of paper PMC10065799, “High-throughput profiling of sequence recognition by tyrosine kinases and SH2 domains using bacterial peptide display” (eLife, 2023).

Columns and labels:
[1] = molecular target: Grb2 SH2 (UniProt P62993); experiment: SH2 binding enrichment of the phosphorylated peptide, bacterial display (enrichment ratio); higher = better substrate or ligand; peptides without Tyr show the background
[2] = molecular target: c-Src SH2; experiment: as above
[3] = molecular target: SHP2-C SH2; experiment: as above
[4] = system: Fer (mouse); experiment: phosphorylation enrichment, bacterial display (enrichment ratio); higher = better substrate or ligand; peptides without Tyr show the background
[5] = system: c-Src; experiment: as above
[6] = system: c-Abl (mouse); experiment: as above
[7] = molecular target: EPHB2 (UniProt P29323); experiment: as above
[8] = molecular target: Hck (UniProt P08631); experiment: as above
[9] = molecular target: MERTK (UniProt Q12866); experiment: as above
[10] = molecular target: Fes (UniProt P07332); experiment: as above
[11] = molecular target: FGFR3 (UniProt P22607); experiment: as above
[12] = molecular target: FGFR1 (UniProt P11362); experiment: as above
[13] = molecular target: Fyn (UniProt P06241); experiment: as above
[14] = system: AncSZ; experiment: as above
[15] = molecular target: EPHB1 (UniProt P54762); experiment: as above
[16] = molecular target: Jak2 (UniProt O60674); experiment: as above
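Wherever SH2 binding enrichment of the phosphorylated peptide, bacterial display is given: peptide library displayed on the E. coli surface as eCPX fusions, selected cells deep-sequenced, score is each peptide's frequency after selection divided by its frequency in the input.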
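Wherever phosphorylation enrichment, bacterial display is given: 11-residue human phosphosite peptides and single-mutation variants displayed on the E. coli surface, counted by deep sequencing, each peptide's frequency after selection divided by its frequency in the unselected input library; frequency after pTyr selection over input frequency; kinase dosed for 20-30% of maximal phosphorylation in three min.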

Chain of Fyn (P06241 whole entry, looked up): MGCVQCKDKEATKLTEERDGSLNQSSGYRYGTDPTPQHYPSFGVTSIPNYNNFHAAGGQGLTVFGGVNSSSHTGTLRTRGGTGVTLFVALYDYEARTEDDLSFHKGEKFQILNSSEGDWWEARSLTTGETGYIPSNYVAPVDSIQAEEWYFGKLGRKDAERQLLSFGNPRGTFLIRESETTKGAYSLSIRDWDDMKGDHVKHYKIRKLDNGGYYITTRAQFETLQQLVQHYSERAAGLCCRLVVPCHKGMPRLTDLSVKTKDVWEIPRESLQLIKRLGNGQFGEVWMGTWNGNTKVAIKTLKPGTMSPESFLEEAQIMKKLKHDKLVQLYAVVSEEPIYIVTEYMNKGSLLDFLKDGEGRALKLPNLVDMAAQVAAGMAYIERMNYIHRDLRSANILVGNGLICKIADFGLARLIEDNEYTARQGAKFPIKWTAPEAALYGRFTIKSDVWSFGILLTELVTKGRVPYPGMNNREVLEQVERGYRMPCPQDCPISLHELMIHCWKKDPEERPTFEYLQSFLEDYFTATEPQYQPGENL
Chain of FGFR1 (P11362 whole entry, looked up): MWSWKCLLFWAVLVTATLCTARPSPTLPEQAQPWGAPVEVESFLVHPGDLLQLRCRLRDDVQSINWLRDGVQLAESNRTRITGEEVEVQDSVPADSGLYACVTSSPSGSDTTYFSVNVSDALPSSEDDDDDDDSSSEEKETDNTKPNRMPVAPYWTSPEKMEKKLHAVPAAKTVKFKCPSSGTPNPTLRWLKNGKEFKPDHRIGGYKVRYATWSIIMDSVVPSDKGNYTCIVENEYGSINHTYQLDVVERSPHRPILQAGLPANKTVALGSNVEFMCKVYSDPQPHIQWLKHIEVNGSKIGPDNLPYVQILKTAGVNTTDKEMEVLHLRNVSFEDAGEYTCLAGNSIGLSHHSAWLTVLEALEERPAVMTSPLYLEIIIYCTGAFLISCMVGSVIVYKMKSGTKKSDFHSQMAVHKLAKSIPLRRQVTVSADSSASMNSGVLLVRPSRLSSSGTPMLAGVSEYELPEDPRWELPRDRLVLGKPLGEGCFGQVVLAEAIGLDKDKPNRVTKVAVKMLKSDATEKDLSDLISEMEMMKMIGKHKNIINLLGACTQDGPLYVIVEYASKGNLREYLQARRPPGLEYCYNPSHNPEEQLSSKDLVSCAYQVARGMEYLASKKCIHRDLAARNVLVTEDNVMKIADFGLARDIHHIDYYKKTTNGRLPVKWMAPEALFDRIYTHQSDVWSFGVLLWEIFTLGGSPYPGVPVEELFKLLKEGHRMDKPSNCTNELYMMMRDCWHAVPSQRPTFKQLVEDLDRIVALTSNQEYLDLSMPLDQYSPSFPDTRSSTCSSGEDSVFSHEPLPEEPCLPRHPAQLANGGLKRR
Chain of Hck (P08631 whole entry, looked up): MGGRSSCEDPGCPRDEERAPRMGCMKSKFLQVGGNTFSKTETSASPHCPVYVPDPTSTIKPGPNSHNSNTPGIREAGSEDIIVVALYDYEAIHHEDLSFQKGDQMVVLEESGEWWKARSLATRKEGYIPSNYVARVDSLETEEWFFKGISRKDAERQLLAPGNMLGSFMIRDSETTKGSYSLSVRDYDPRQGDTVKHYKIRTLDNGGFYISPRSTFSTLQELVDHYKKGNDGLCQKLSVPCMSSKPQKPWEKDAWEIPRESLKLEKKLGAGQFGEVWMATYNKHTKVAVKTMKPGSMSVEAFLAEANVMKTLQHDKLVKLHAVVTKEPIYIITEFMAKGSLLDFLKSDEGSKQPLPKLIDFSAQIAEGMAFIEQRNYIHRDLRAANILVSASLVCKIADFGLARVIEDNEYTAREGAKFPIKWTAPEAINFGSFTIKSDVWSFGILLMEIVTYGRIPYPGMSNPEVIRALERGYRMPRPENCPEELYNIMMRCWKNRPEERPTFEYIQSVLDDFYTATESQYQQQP
Chain of Jak2 (O60674 whole entry, looked up, the tested form may be a part): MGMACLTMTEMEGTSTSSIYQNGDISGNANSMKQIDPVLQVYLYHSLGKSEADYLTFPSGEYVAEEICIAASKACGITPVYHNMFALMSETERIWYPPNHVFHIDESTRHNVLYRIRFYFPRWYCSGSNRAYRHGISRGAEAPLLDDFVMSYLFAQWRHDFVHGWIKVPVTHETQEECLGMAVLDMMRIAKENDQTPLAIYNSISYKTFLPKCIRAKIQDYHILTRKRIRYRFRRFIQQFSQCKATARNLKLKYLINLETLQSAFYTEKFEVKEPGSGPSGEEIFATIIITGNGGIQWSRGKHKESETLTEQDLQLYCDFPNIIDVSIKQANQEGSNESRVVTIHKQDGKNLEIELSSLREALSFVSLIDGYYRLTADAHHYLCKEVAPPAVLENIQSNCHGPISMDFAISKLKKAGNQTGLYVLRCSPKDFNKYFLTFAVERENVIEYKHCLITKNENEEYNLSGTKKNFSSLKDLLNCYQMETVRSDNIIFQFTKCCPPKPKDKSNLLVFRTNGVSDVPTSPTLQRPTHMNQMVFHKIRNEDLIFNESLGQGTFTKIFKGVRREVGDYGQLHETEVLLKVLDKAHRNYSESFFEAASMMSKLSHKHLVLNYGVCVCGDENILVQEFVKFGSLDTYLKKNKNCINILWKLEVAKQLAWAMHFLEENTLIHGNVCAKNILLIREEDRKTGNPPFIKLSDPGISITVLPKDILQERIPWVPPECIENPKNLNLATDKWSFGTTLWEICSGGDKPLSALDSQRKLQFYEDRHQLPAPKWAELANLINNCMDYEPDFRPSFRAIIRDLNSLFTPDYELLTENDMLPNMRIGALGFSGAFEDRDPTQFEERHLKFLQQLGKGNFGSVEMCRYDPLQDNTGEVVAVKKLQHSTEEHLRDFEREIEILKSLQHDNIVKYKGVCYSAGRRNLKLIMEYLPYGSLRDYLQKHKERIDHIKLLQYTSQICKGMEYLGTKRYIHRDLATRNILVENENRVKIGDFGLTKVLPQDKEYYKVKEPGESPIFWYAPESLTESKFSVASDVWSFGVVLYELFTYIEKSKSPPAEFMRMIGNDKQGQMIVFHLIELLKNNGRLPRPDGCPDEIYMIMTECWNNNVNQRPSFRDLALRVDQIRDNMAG
Chain of EPHB2 (P29323 whole entry, looked up): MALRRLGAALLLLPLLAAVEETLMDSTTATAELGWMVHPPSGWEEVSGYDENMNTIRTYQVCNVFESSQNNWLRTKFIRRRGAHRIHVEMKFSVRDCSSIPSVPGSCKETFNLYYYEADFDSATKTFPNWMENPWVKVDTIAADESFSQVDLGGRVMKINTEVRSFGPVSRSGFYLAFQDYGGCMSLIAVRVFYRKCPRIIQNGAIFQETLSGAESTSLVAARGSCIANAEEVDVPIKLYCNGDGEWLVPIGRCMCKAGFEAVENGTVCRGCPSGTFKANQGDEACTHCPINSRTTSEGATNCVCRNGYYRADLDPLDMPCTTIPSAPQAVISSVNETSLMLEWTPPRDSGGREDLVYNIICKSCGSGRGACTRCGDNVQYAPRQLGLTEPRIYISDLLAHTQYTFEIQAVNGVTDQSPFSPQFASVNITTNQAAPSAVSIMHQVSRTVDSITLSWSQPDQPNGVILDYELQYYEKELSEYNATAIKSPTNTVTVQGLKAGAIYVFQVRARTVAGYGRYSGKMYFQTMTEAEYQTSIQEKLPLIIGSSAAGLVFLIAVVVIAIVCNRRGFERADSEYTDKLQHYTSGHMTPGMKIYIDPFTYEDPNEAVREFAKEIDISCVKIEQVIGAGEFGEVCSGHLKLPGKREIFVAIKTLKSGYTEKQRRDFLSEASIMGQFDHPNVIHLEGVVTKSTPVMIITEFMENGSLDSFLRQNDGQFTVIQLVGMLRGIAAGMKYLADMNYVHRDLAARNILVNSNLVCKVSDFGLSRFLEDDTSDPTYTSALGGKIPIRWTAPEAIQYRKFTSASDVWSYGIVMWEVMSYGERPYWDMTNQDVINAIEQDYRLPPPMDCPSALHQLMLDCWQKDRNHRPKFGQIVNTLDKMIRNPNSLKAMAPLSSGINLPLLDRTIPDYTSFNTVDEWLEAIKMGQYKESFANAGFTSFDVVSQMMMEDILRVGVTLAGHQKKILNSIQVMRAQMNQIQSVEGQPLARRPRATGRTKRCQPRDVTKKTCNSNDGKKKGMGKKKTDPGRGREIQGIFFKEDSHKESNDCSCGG
Chain of Fes (P07332 whole entry, looked up): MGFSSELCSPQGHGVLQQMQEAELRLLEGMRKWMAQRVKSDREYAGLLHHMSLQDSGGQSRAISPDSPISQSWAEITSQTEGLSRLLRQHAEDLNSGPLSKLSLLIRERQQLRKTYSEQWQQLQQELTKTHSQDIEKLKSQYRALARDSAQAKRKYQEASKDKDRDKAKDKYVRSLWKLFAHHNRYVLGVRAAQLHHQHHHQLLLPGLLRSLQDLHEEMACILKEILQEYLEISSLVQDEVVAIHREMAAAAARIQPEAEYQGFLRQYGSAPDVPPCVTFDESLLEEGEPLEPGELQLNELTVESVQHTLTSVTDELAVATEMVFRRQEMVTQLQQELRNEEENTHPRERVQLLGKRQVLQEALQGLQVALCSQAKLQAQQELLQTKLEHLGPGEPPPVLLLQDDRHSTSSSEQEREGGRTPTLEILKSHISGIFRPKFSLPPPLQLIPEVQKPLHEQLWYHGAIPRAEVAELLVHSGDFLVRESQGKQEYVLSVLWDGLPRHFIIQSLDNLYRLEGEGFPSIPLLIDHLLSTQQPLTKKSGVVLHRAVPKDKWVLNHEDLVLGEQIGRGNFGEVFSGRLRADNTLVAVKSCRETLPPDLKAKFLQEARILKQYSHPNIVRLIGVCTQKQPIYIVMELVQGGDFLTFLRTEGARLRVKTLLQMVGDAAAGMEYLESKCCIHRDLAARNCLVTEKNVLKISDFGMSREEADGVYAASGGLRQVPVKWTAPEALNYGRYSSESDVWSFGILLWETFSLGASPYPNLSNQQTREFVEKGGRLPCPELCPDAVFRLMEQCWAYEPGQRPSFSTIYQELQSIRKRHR

Sequence	SH2 binding enrichment [1]	SH2 binding enrichment [2]	SH2 binding enrichment [3]	phosphorylation enrichment [4]	phosphorylation enrichment [5]	phosphorylation enrichment [6]	phosphorylation enrichment [7]	phosphorylation enrichment [8]	phosphorylation enrichment [9]	phosphorylation enrichment [10]	phosphorylation enrichment [11]	phosphorylation enrichment [12]	phosphorylation enrichment [13]	phosphorylation enrichment [14]	phosphorylation enrichment [15]	phosphorylation enrichment [16]
GCRSKYVRLWG [KCNQ1_Y184_G186R]	1.38	1.54	1.6	0.472	0.495	0.492	0.409	0.461	0.444	0.696	0.486	0.462	0.425	0.628	0.383	0.636
GDFFCYLAEVA [YWHAG_Y133_R132C_YF]	0.618	0.491	0.701	0.865	0.484	1.12	0.655	0.608	0.546	1.52	0.922	0.557	0.702	1.33	0.863	1.39
GEEIKDMLWLS [OTC_Y55_Y55D]	0.807	0.501	0.584	0.428	0.361	0.672	0.462	0.446	0.425	1	0.566	0.475	0.475	0.913	0.448	0.822
GEEIKYMLWLS [OTC_Y55]	0.646	0.346	0.714	0.745	0.518	1.19	0.62	0.645	0.703	1.28	0.934	0.682	0.493	1.24	0.592	1.21
GEVLVYVEDPA [FLNA_Y319]	0.706	0.45	0.553	0.85	0.636	0.917	0.728	0.589	0.478	1.41	0.81	0.694	0.529	1.33	0.798	1.34
GGMTEYKLVVV [KRAS_Y4]	0.985	0.649	2.14	0.423	0.369	0.539	0.569	0.446	0.368	0.929	0.776	1.01	0.488	0.852	0.514	0.685
GGPTYYIDTNA [ACTL6A_Y69]	0.822	0.679	0.694	0.407	0.778	0.555	0.514	0.899	1.08	0.893	0.963	1.09	0.926	0.885	0.698	0.727
GGQVFHNSEYG [FLT4_Y1333_Y1333H]	0.665	0.474	0.655	0.349	0.425	0.857	0.431	0.377	0.314	0.712	0.535	0.386	0.362	0.581	0.438	0.67
GGQVFYNSEFG [FLT4_Y1333_YF]	0.623	0.45	0.735	0.53	0.838	0.884	0.617	0.532	0.546	1.11	0.766	0.551	0.479	1.09	0.619	1.25
GHLYAYDWIRI [BEST1_Y227_S231R]	1.25	1.97	1.31	15.8	2.28	0.857	2.42	3.12	9.27	3.03	2.73	4.35	1.84	1.44	3.44	0.941
GHNDVYISEHV [GRIN2A_Y1423]	1.1	0.456	0.535	0.317	0.395	0.33	0.447	0.438	0.332	0.618	0.478	0.393	0.416	0.552	0.331	0.407
GHNNVYISEHV [GRIN2A_Y1423_D1421N]	0.915	0.469	0.759	0.393	0.425	0.522	0.459	0.476	0.419	0.6	0.463	0.421	0.475	0.734	0.374	0.769
GITTGYLVLKE [DNMT3B_Y588_A585T]	0.907	0.746	2.06	0.542	0.371	0.389	0.532	0.438	0.334	0.797	0.572	0.456	0.404	0.668	0.39	0.616
GKMPQYLESMQ [CYB5R3_Y130_S128P]	0.906	0.571	0.932	0.304	0.459	0.614	0.412	0.466	0.473	0.701	0.554	0.517	0.537	0.741	0.492	0.73
GLDGSYLLRDS [SH2D1A_Y29]	0.756	0.42	0.636	0.39	0.397	0.471	0.387	0.563	0.413	0.622	0.464	0.426	0.413	0.574	0.371	0.578
GLRQGYFVEAQ [APCS_Y142]	0.85	0.618	0.718	0.42	0.327	0.529	0.505	0.408	0.36	1.08	0.637	0.559	0.366	0.945	0.526	0.807
GNEEAYGRSHI [FAM171B_Y522]	0.796	0.444	0.801	0.456	0.471	0.706	0.438	0.471	0.455	0.823	0.575	0.378	0.425	0.825	0.448	0.905

Sequence	SH2 binding enrichment [1]	SH2 binding enrichment [2]	SH2 binding enrichment [3]	phosphorylation enrichment [4]	phosphorylation enrichment [5]	phosphorylation enrichment [6]	phosphorylation enrichment [7]	phosphorylation enrichment [8]	phosphorylation enrichment [9]	phosphorylation enrichment [10]	phosphorylation enrichment [11]	phosphorylation enrichment [12]	phosphorylation enrichment [13]	phosphorylation enrichment [14]	phosphorylation enrichment [15]	phosphorylation enrichment [16]
GNLLIYTEFGK [HGD_Y166]	0.687	0.471	0.668	0.54	5.93	3.12	1.13	4.65	4.24	1.28	0.731	0.56	7.36	1.28	1.81	1.14
GPGLVYGVANK [FLNB_Y1833]	0.732	0.551	0.643	0.51	2.83	0.545	0.405	3.44	0.422	0.689	0.483	0.648	1.59	0.531	0.421	0.718
GQLIFYAPPEW [CNTN6_Y315]	1.09	0.781	0.963	2.04	0.822	2.95	3.08	0.829	3.46	1.18	0.731	0.513	0.576	1.39	0.938	1.5
GQSKGYRPKLY [SIPA1L3_Y1376]	0.662	0.531	0.824	0.411	0.387	0.329	0.393	0.4	0.431	0.489	0.454	0.357	0.45	0.43	0.316	0.416
GREAEYSEKHG [EPHB4_Y574_D576E]	0.742	0.442	0.476	0.398	0.396	0.631	0.487	0.444	0.368	0.697	0.544	0.418	0.354	0.681	0.514	0.59
GRKTLYSFFSP [UNG_Y8_Q4R]	1.57	1.17	0.978	3.82	1.9	0.56	0.603	2.26	12	0.825	0.641	0.571	1.13	0.529	0.709	0.91
GRLPEYNTPIA [CCDC151_Y542_R545P]	0.807	0.841	0.479	0.317	0.463	0.716	0.432	0.325	0.407	0.643	0.397	0.388	0.442	0.704	0.515	0.662
GSERRYSREGG [PTPRN2_Y139]	0.678	0.475	0.646	0.386	0.463	0.46	0.413	0.356	0.415	0.468	0.412	0.4	0.479	0.703	0.5	0.45
GSETPYMDRTP [ESS2_Y335_V336M]	1.05	0.49	0.788	0.363	0.454	0.424	0.413	0.365	0.365	0.715	0.413	0.431	0.344	0.662	0.571	0.499
GSSEGYLHMVH [NIPBL_Y247_D246G]	0.794	0.477	0.9	0.424	0.403	0.491	0.427	0.396	0.419	0.679	0.474	0.388	0.368	0.616	0.333	0.617
GTAPSYGNPSS [CD19_Y378]	0.907	0.45	0.556	0.299	0.496	0.589	0.362	0.336	0.432	0.56	0.494	0.38	0.358	0.517	0.407	0.594
GTGTAYLCGVK [ALPL_Y117_A114G]	0.902	0.543	0.679	0.511	0.348	0.685	0.412	0.395	0.379	0.754	0.489	0.446	0.435	0.694	0.551	0.675
GYIISYREEEQ	0.857	0.527	1.04	0.596	0.516	0.909	0.599	0.473	0.539	2.14	0.586	0.532	0.546	1.79	0.48	1.53
HDRGNYVQLNM [RECQL4_Y353_R355Q]	0.986	1.95	1.18	0.674	0.442	0.552	3.46	0.508	0.686	1.1	1.35	1.99	0.493	0.744	8.72	0.55
HELYVYKSDEN [DOCK3_Y548_C550S]	1.04	0.584	0.772	0.879	0.917	1.19	0.912	0.835	0.487	2.14	1.32	0.684	0.849	1.7	1.28	1.75
HFEFKYVINAI [MAOA_Y268_C266F_YF]	0.814	0.561	0.772	0.829	0.576	1.26	0.89	0.668	0.678	2.11	0.854	0.391	0.441	1.66	0.686	1.81
